Tests used:
[1] = cited from earlier work
[2] = Proteolytic (endo-protease) activity on substrates ZAAXpNA; assay type: biochemical; conditions: purified enzyme preparation
[3] = tested on: κ-casein in milk and GMP-protein in whey; test: Liberation of free sialic acid from milk and whey by sialidase (RP-HPLC, DMB labelling); assay type: biochemical; conditions: milk and whey incubated with sialidase ZJW 0.4 U/ml at room temperature (20-21° C.)
Source text: Free sialic acid can be analyzed by means of reverse-phase HPLC, using fluorescence detection with excitation at 310 nm and emission 448 nm after labelling with DMB compound. This method was recently described in literature (M. J. Martin et al Anal. Bional. Chem., 2007, 387, 2943-29-49) and allowed fast and accurate determination of free sialic contents in samples.
Milk was reconstituted by using NILAC low heat skim milk powder (NIZO, The Netherlands); whey was obtained from a local cheddar making facility. The milk and whey samples were treated as follows: milk and whey was incubated separately with sialidase ZJW (0.4 U/ml) at room temperature (20-21° C.) and the reaction was terminated at different moments of time by heating the samples in water bath at 95° C. for 5 minutes. A series of several sialidase ZJW concentrations and incubation times were performed. The samples used for HPLC analysis need to be free from proteins. Therefore, samples were filtered with a Nanosep ultra filtration Eppendorff (10 KD) using centrifugation for 15 minutes at 14000 g. After centrifugation, the free protein supernatant was collected and diluted 100 times with milliQ water in order to measure the sialic acid in a proper range of concentrations (measuring range using RP HPLC method is 5 fmol-5 nmol of sialic acid). […]

free sialic acid levels (concentration) ([3]; after 4 hours) | levels of free sialic acid ([3]; after 20 hours of incubation) [mg/L] | Molecule | pKa [1] | proteolytic activity on a series of substrates ZAAXpNA [2]
– | – | CC(=O)N[C@H]1[C@H]([C@H](O)[C@H](O)CO)OC(O)(C(=O)O)C[C@@H]1O (stereo partly shown) [Sialic acids, N-acetylneuraminic acid] | around 2.2 | –
approximately 220 mg/L | 250 | sialidase ZJW: secreted fungal sialidase from Penicillium chrysogenum (SEQ ID NO: 3), overexpressed in Aspergillus niger (protein, listed as Penicillium chrysogenum) MLSSLMYLARECSILRAISLCAILAVATPAASASVTAKHTLATNGKGLFPQYRIVALASLGNGVLLASYDGRPDGGDSPSPNSILQRRSTDGGKTWGNPTYIARGQPASSTLQQYGFSDPSYVVDSGTGKVFNFHVFSKNQGFLNSEIGNDDTDLNIVSAEVSVSTDGGLSWTTDPDHESSLPPVASADVANVGGITGMFASSGEGIQLKYGKHAGRLVQQFLGKVIQSDGSKVSQAYSVYSDDGGAIWKMGKVIGTGMDENKVVELSNGNLMLNSRPSDGSGYRKVATSTDGGETWSTPASETQLPDPGNNGAITRMYPDAAHGSANAKILLFTNANSKTSRSNGTIRYSCDDGKTWSSGAVFQSGSMSYSTVTALGDDRFGIFYEGDSNDLVYIEVSKDFIGVSC | – | does not show proteolytic activity
